For data set [1], the target named is T1, Cren7 (UniProt Q97ZE3 1-60).
T1 sequence: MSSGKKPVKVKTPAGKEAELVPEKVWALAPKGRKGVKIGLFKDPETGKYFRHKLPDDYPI
As to the kind of experiment: X-ray crystallography; 2.0 A; T2:G15 open; SPR (BIAcore 3000): 50 mM Tris-Cl pH 7.5, 100 mM NaCl, 1 mM EDTA, 0.005% Tween 20, 25 C, 1:1 Langmuir global fit; crystals: protein:DNA 1:1.5, 30% PEG1500, 20 C. The conditions noted are these: protein: recombinant; blunt; self-annealed octamer, 2 strand copies, T:G mispairs T2:G15 and G7:T10. For orientation: SPR reads the build-up and loss of mass on a sensor chip optically.

Data set [2] has as its target T1, Cren7. As to the kind of experiment: X-ray crystallography; 2.1 A; both T:G wobble; SPR (BIAcore 3000): 50 mM Tris-Cl pH 7.5, 100 mM NaCl, 1 mM EDTA, 0.005% Tween 20, 25 C, 1:1 Langmuir global fit; crystals: protein:DNA 1:1.5, 30% PEG1500, 20 C. The conditions noted are these: protein: recombinant; blunt; self-annealed octamer, 2 strand copies, T:G mispairs T2:G15 and G7:T10.

Two molecules from article PMC5042384, “Sequence-Dependent T:G Base Pair Opening in DNA Double Helix Bound by Cren7, a Chromatin Protein Conserved among Crenarchaea” can be followed below.

B1: d(GTAATTGC)2 (dsDNA)
DNA 1: GTAATTGC
DNA 2: GTAATTGC
Turning to B1, the binding result in the data set with Cren7 [1] is “binds”.

B2: d(GTGATCGC)2 (dsDNA)
DNA 1: GTGATCGC
DNA 2: GTGATCGC
As to B2, the binding result with Cren7 [2] is “binds”.
